In publication PMC9726709, “Fluorescently tagged nanobodies and NanoBRET to study ligand-binding and agonist-induced conformational changes of full-length EGFR expressed in living cells” (Frontiers in Immunology, 2022):

B1: heparin binding EGF-like growth factor (ligand, UniProt Q99075 63-148, looked up)
chain: DLQEADLDLLRVTLSSKPQALATPNKEEHGKRKKKGKGLGKKRDPCLRKYKDFCIHGECKYVKELRAPSCICHPGYHGERCHGLSL
notes: the other ligands are human recombinant proteins from R&D Systems; also called HB-EGF; Hb-EGF
B2: human recombinant betacellulin (ligand, UniProt P35070 32-111, looked up)
chain: DGNSTRSPETNGLLCGDPEENCAATTTQSKRKGHFSRCPKQYKHYCIKGRCRFVVAEQTPSCVCDEGYIGARCERVDLFY
notes: Betacellulin, human, recombinant; also called BTC; source: bought: R&D Systems (261-CE-010)

Experiments:
[1] = biological target: T1, N-terminal NanoLuc-tagged EGFR (NLuc-EGFR) (human, UniProt P00533 25-1210); experiment: FRET or BRET; NanoBRET displacement of 3 nM EGF-AF488 by unlabelled EGFR ligands on living HEK293 cells expressing NLuc-EGFR; added simultaneously, 30 min at 37 °C; HBSS with 0.2% BSA; Ki from IC50 by Cheng-Prusoff; pKi is the negative log10; settings: one partner purified
T1 construct: ORF from the Kazusa DNA Research Institute; NanoLuc fused to its N-terminus via a Gly-Ser-Ser-Gly linker; signal peptide of IL-6 before NanoLuc; Vector pNKF1-secN CMV; The abstract says HEK293T, the methods HEK293; also called full-length N-terminal nanoluciferase-EGFR; NanoLuc-EGFR; source: HEK293 cells, stably transfected, on living cells; not shown: NanoLuc, N-terminal, kept

[2] = biological target: T1, N-terminal NanoLuc-tagged EGFR …; settings: one partner purified
[3] = biological target: T1, N-terminal NanoLuc-tagged EGFR …; experiment: cell-based or functional assay

Binder | pKi [1] | pIC50 [2] | pEC50 for enhancement of the specific binding of 12.5 nM Q86c-HL488 (conformational sensor nanobody) to NLuc-EGFR, NanoBRET on HEK293 cells [3]
B1 | 8.43 | 8.8 | 9.2
B2 | 8.45 | 9.02 | 9.17
